From patent US20240352452, “CRISPR-BASED PROTEIN BARCODING AND SURFACE ASSEMBLY” (The Brigham and Women's Hospital, Inc., published 2024)
Changes are numbered by the printed parent chain.

Assays:
dCas9-HA [1] = biological target: T1, dCas9-HA (UniProt Q99ZW2 SEQ:1-1368); test: dsDNA microarray, anti-HA; PAM NGG; details: label: Cy3-dUTP
dCas9-6His [2] = biological target: T2, dCas9-6His (UniProt Q99ZW2 SEQ:1-1368); test: dsDNA microarray, anti-6His; PAM NGG; 37 C 16 h, 50 mM Tris pH 7.4, 150 mM NaCl; details: tags: C-terminal 6His (pdCas9-bacteria, Addgene #44249 derived); label: Cy3-dUTP
dCas9-6His [3] = biological target: T2, dCas9-6His; test: off-target probe with PAM; dsDNA microarray; details: tags: C-terminal 6His (pdCas9-bacteria, Addgene #44249 derived); label: Cy3-dUTP
dCas9-HA [4] = biological target: T1, dCas9-HA; test: no-PAM control; binding depended on PAM; details: label: Cy3-dUTP
dCas9-myc [5] = biological target: T3, dCas9-myc (UniProt Q99ZW2 SEQ:1-1368); test: dsDNA microarray, anti-myc; PAM NGG; details: label: Cy3-dUTP
dCas9-myc [6] = biological target: T3, dCas9-myc; test: no-PAM control; binding depended on PAM; details: label: Cy3-dUTP
dCas9-6His [7] = biological target: T2, dCas9-6His; test: dsDNA microarray, perfect match; PAM NGG; details: tags: C-terminal 6His (pdCas9-bacteria, Addgene #44249 derived); label: Cy3-dUTP
dCas9-scFv B1-182.1 = dCas9-scFv B1-182.1 (UniProt Q99ZW2 SEQ:1-1368); test: dsDNA microarray; detected via spike antigen and CR3022; PAM NGG; details: tags: C-terminal anti-spike scFv B1-182.1 fusion and 6His (Addgene #186421); label: Cy3-dUTP

B1: sgRNA spacer CCGUACC ; probe for G1 (ssRNA ; dsDNA)
RNA: CCGUACCUAGAUACACUCAAGUUUUAGAGCUAGAAAUAGCAAGUUAAAAUAAGGCUAGUCCGUUAUCAACUUGAAAAAGUGGCACCGAGUCGGUGC
DNA 1: GAGCGACGCTGCACCATTGAGTGTATCTAGGTACGGCCCGACCTCACCCG
DNA 2: CGGGTGAGGTCGGGCCGTACCTAGATACACTCAATGGTGCAGCGTCGCTC
B1: binds (dCas9-HA [1]); binds (dCas9-6His [2]).

B2: sgRNA spacer CCGUACC ; probe for G2 (ssRNA ; dsDNA)
RNA: B1 RNA
DNA 1: GAGCGACGCTGCACCAATGCGGAGGGTTTCTTTTATCCCGACCTCACCCG
DNA 2: CGGGTGAGGTCGGGATAAAAGAAACCCTCCGCATTGGTGCAGCGTCGCTC
B2: no binding (dCas9-6His [3]).

B3: sgRNA spacer CCGUACC ; probe for G1, no PAM (ssRNA ; dsDNA)
RNA: B1 RNA
DNA 1: B1 DNA 1 with C15G
DNA 2: B1 DNA 2 with G36C
B3: no binding (dCas9-HA [4]).

B4: sgRNA spacer AUAAAAG ; probe for G2 (ssRNA ; dsDNA)
RNA: AUAAAAGAAACCCUCCGCAUGUUUUAGAGCUAGAAAUAGCAAGUUAAAAUAAGGCUAGUCCGUUAUCAACUUGAAAAAGUGGCACCGAGUCGGUGC
DNA 1: B2 DNA 1
DNA 2: B2 DNA 2
B4: binds (dCas9-myc [5]).

B5: sgRNA spacer AUAAAAG ; probe for G2, no PAM (ssRNA ; dsDNA)
RNA: B4 RNA
DNA 1: B2 DNA 1 with C15G
DNA 2: B2 DNA 2 with G36C
B5: no binding (dCas9-myc [6]).

B6: sgRNA spacer UCCAUAG ; probe for G5 (ssRNA ; dsDNA)
RNA: UCCAUAGAUUUCUCCGUGAGGUUUUAGAGCUAGAAAUAGCAAGUUAAAAUAAGGCUAGUCCGUUAUCAACUUGAAAAAGUGGCACCGAGUCGGUGC
DNA 1: GAGCGACGCTGCACCACTCACGGAGAAATCTATGGACCCGACCTCACCCG
DNA 2: CGGGTGAGGTCGGGTCCATAGATTTCTCCGTGAGTGGTGCAGCGTCGCTC
B6: binds (dCas9-6His [7]); binds (dCas9-scFv B1-182.1).

B7: sgRNA spacer AGAGACU ; probe for G3 (ssRNA ; dsDNA)
RNA: AGAGACUGCCCGACACAUCUGUUUUAGAGCUAGAAAUAGCAAGUUAAAAUAAGGCUAGUCCGUUAUCAACUUGAAAAAGUGGCACCGAGUCGGUGC
DNA 1: GAGCGACGCTGCACCAAGATGTGTCGGGCAGTCTCTCCCGACCTCACCCG
DNA 2: CGGGTGAGGTCGGGAGAGACTGCCCGACACATCTTGGTGCAGCGTCGCTC
B7: binds (dCas9-6His [7]).

B8: sgRNA spacer CACUGUU ; probe for G4 (ssRNA ; dsDNA)
RNA: CACUGUUUAACAAGCCCGUCGUUUUAGAGCUAGAAAUAGCAAGUUAAAAUAAGGCUAGUCCGUUAUCAACUUGAAAAAGUGGCACCGAGUCGGUGC
DNA 1: GAGCGACGCTGCACCAGACGGGCTTGTTAAACAGTGCCCGACCTCACCCG
DNA 2: CGGGTGAGGTCGGGCACTGTTTAACAAGCCCGTCTGGTGCAGCGTCGCTC
B8: binds (dCas9-6His [7]).
